Assay results published in doi:10.1101/551788.

Biological target: Tom20.CIB.GFP (not stated | A. thaliana)
Experiment: light-induced recruitment to mitochondria

Cry2(1-531).mCh (from UniProt Q96524 1-531) (domain or fragment)
half-life of association with the OMM: 6.25 min

Cry2(1-531).L348F.mCh (from UniProt Q96524 1-531) (domain or fragment)
half-life of association with the OMM: 32.8 min
